Measurements from article PMC8755082, “Recognition of G-quadruplex RNA by a crucial RNA methyltransferase component, METTL14”.

Assays:
[1] = biological target: METTL3 MTD (MTD3);METTL14 MTD without RGG (MTD14) (human?;human?, UniProt Q86U44;Q9HCE5 255-580;110-413, |); test: EMSA; K+ buffer; EMSA: 2.5 nM RNA, 10 mM potassium (or lithium) phosphate pH 7.5, 25 uM ZnCl2, 10 uM SAM, 0.5 mM DTT, 0.005% Tween 20, 2.5% ficoll, 50 ng/uL yeast tRNA, 4 C, 1 h; GST-RGG: 25 mM Tris-HCl pH 7.5 with 10 mM KCl or LiCl instead of phosphate; conditions: protein: recombinant;recombinant; tags: Strep-tag II;His6; copies: 1;1; label: 5' FAM; intramolecular parallel G4 in K+; unfolded in Li+
[2] = biological target: T1, METTL3 MTD (MTD3);METTL14 MTD-RGG (MTD14-RGG) (human?;human?, UniProt Q86U44;Q9HCE5 255-580;110-456, |); test: as above; conditions: protein: recombinant;recombinant, tags: Strep-tag II;His6, copies: 1;1, label: 5' FAM
[3] = biological target: T1, METTL3 MTD (MTD3);METTL14 MTD-RGG …; test: EMSA; Li+ buffer; EMSA: 2.5 nM RNA, 10 mM potassium (or lithium) phosphate pH 7.5, 25 uM ZnCl2, 10 uM SAM, 0.5 mM DTT, 0.005% Tween 20, 2.5% ficoll, 50 ng/uL yeast tRNA, 4 C, 1 h; GST-RGG: 25 mM Tris-HCl pH 7.5 with 10 mM KCl or LiCl instead of phosphate; conditions: protein: recombinant;recombinant; tags: Strep-tag II;His6; copies: 1;1; label: 5' FAM; no G4

T1 sequence (Q86U44 255-580, chain 1 of 2): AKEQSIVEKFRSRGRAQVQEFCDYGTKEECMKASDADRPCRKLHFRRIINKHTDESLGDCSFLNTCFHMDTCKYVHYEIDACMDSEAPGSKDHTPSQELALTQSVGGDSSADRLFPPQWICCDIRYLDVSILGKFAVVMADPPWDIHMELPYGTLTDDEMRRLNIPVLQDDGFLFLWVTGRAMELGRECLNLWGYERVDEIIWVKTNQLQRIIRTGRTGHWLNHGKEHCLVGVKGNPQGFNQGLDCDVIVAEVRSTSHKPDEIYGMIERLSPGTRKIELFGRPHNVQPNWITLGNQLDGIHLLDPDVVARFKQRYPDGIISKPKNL
T1 sequence (Q9HCE5 110-456, chain 2 of 2): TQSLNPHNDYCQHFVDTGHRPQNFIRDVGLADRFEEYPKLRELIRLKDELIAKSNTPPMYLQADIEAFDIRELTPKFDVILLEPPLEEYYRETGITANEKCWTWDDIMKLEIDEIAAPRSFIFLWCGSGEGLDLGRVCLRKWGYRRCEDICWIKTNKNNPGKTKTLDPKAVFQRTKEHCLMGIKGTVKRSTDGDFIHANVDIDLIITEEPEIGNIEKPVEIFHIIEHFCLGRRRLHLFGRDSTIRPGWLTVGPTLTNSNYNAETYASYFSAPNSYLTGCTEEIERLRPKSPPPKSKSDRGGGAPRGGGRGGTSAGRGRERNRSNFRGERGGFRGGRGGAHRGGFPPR
Chain of METTL3 MTD (MTD3);METTL14 MTD without RGG (MTD14) (Q86U44 255-580, chain 1 of 2): as the sequence (Q86U44 255-580, chain 1 of 2) above
Chain of METTL3 MTD (MTD3);METTL14 MTD without RGG (MTD14) (Q9HCE5 110-413, chain 2 of 2): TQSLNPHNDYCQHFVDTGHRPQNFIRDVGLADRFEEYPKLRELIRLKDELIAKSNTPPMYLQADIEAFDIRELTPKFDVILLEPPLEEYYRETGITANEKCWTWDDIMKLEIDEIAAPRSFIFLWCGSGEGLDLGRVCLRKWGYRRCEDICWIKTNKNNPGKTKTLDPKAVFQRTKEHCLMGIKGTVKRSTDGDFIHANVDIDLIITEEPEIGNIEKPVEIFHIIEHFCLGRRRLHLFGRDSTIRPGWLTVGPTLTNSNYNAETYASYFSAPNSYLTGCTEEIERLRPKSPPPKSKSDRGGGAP

UUAGGGUUAGGGUUUUAGACAUUUUUUAGGGUUAGGG (structured_RNA) [G4 RNA1]
Kd [1]: 419 ± 109 nM
Kd ([2]; intramolecular parallel G4 in K+, unfolded in Li+): 35 ± 12 nM

UUAGGGUUAGGGUUAGGGUUUUAGACAUUUUUUAGGG (structured_RNA) [G4 RNA2]
Kd ([2]; intramolecular G4 in K+, loops 3-3-16): 36 ± 11 nM

UUUUUUUUUUUUUUAGGGUUAGGGAGACAUUAGGGUUAGGG (structured_RNA) [G4 RNA3]
Kd ([2]; intramolecular G4 in K+, loops 3-8-3): 29 ± 13 nM

UUAGGGUUAGGGUUAGGGUUAGGGAGACAUUUUUUUUUUUU (structured_RNA) [G4 RNA4]
Kd ([2]; intramolecular G4 in K+, loops 3-3-3): 35 ± 9 nM

UGAGUGUGAGUGUUUUAGACAUUUUUGAGUGUGAGUG (ssRNA) [Non-G4 RNA1]
Kd ([2]; no G4): 209 ± 94 nM
Kd [3]: 149 ± 11 nM

UUUUUUUUUUUUUGAGUGUGAGUGAGACAUGAGUGUGAGUG (ssRNA) [Non-G4 RNA2]
Kd ([2]; no G4): 309 ± 85 nM
